Results as given in the Human Domainome abundance scans (Beltran et al. 2025).
± gives the uncertainty stated by the source.

Assay: abundance fitness (aPCA) (normalised: wild type 0, dead -1); higher = more abundant; growth selection in yeast, the domain comes from the species named
Conditions: Homo sapiens

Row | Substance | abundance fitness
1 | Scaffold attachment factor B2 I36A, Q14151 | 0.153 ± 0.082
2 | Scaffold attachment factor B2 L47R, Q14151 | -0.524 ± 0.076
3 | Scaffold attachment factor B2 L30W, Q14151 | -0.771 ± 0.076
4 | Scaffold attachment factor B2 R59D, Q14151 | -0.54 ± 0.24
5 | Scaffold attachment factor B2 G50P, Q14151 | -1.01 ± 0.16
6 | Scaffold attachment factor B2 N52M, Q14151 | -0.442 ± 0.11
7 | Scaffold attachment factor B2 R34F, Q14151 | -0.673 ± 0.23
8 | Scaffold attachment factor B2 R29Q, Q14151 | -0.162 ± 0.1
9 | Scaffold attachment factor B2 T49R, Q14151 | -0.766 ± 0.077
10 | Scaffold attachment factor B2 R34N, Q14151 | -0.456 ± 0.33
11 | Scaffold attachment factor B2 A63T, Q14151 | -0.44 ± 0.13
12 | Scaffold attachment factor B2 E66I, Q14151 | -0.207 ± 0.15
13 | Scaffold attachment factor B2 Q69K, Q14151 | -0.164 ± 0.1
14 | Scaffold attachment factor B2 A40G, Q14151 | -0.233 ± 0.1
15 | Scaffold attachment factor B2 A40Y, Q14151 | -0.387 ± 0.11
16 | Scaffold attachment factor B2 Q69M, Q14151 | -0.27 ± 0.19
17 | Scaffold attachment factor B2 S54N, Q14151 | -0.223 ± 0.12
18 | Scaffold attachment factor B2 K62R, Q14151 | -0.075 ± 0.078
19 | Scaffold attachment factor B2 T27S, Q14151 | -0.175 ± 0.13
20 | Scaffold attachment factor B2 D48F, Q14151 | -0.338 ± 0.36
21 | Scaffold attachment factor B2 L38T, Q14151 | -0.544 ± 0.099
22 | Scaffold attachment factor B2 L38I, Q14151 | -0.141 ± 0.13
23 | Scaffold attachment factor B2 R59C, Q14151 | -0.583 ± 0.19
24 | Scaffold attachment factor B2 E41R, Q14151 | -1.09 ± 0.38
25 | Scaffold attachment factor B2 A63P, Q14151 | -0.608 ± 0.13
26 | Scaffold attachment factor B2 L47P, Q14151 | -0.194 ± 0.45
27 | Scaffold attachment factor B2 A40D, Q14151 | -0.409 ± 0.25

Row | Substance | abundance fitness
28 | Scaffold attachment factor B2 T49I, Q14151 | -0.401 ± 0.2
29 | Scaffold attachment factor B2 R28P, Q14151 | -0.437 ± 0.22
30 | Scaffold attachment factor B2 L47G, Q14151 | -0.616 ± 0.068
31 | Scaffold attachment factor B2 D48I, Q14151 | -0.555 ± 0.13
32 | Scaffold attachment factor B2 T49F, Q14151 | -0.452 ± 0.1
33 | Scaffold attachment factor B2 D37F, Q14151 | -0.737 ± 0.12
34 | Scaffold attachment factor B2 K44N, Q14151 | -0.27 ± 0.13
35 | Tyrosine-protein kinase Lck E83K, P06239 | -0.049 ± 0.12
36 | Scaffold attachment factor B2 L56S, Q14151 | -0.434 ± 0.1
37 | Scaffold attachment factor B2 R29F, Q14151 | -0.237 ± 0.15
38 | Scaffold attachment factor B2 V64M, Q14151 | -0.013 ± 0.13
39 | Scaffold attachment factor B2 K65F, Q14151 | -0.396 ± 0.22
40 | Tyrosine-protein kinase Lck I67C, P06239 | -0.193 ± 0.12
41 | Scaffold attachment factor B2 L47I, Q14151 | -0.534 ± 0.19
42 | Scaffold attachment factor B2 D70E, Q14151 | 0.125 ± 0.12
43 | Scaffold attachment factor B2 R29M, Q14151 | -0.288 ± 0.13
44 | Scaffold attachment factor B2 K43Y, Q14151 | -0.961 ± 0.25
45 | Scaffold attachment factor B2 L33M, Q14151 | 0.182 ± 0.11
46 | Scaffold attachment factor B2 D37Y, Q14151 | -0.797 ± 0.16
47 | Scaffold attachment factor B2 E32N, Q14151 | 0.078 ± 0.35
48 | Scaffold attachment factor B2 D70G, Q14151 | -0.036 ± 0.11
49 | Scaffold attachment factor B2 I36G, Q14151 | 0.066 ± 0.068
50 | Scaffold attachment factor B2 R59P, Q14151 | -0.249 ± 0.094
51 | Scaffold attachment factor B2 N52W, Q14151 | -1.06 ± 0.13
52 | Scaffold attachment factor B2 E58C, Q14151 | -0.364 ± 0.12
53 | Scaffold attachment factor B2 N46P, Q14151 | -0.514 ± 0.087
